# According to publication PMC10889306, “ApoE Isoforms Inhibit Amyloid Aggregation of Proinflammatory Protein S100A9” (International Journal of Molecular Sciences, 2024):
# Where “and” joins values, the source holds several entries; their conditions need not be identical. Equal entries are not always repeated.
# B1: S100A9 (natural protein)
# chain: KMSQLERNIETIINTFHQYSVKLGHPDTLNQGEFKELVRKDLQNFLKKENKNEKVIEHIMEDLDTNADKQLSFEEFIMLMARLTWASHEKMHEGDEGPGHHHKPGLGEGTP
# notes: 13 kDa monomer on the gels; PDB 5I8N (S100A9 dimer, NMR) was used for the modelling only; also called native S100A9; S100A9 amyloids; source: Escherichia coli, purified as described previously [57]; Superdex 200 gel filtration for the cross-linking
# What was measured:
# ApoE3 (lipid-free) [1] = target: T1, ApoE3 (lipid-free) (human, UniProt P02649 19-317); experiment: cross-linking; native proteins, 4 uM S100A9 and 4 uM ApoE isoform (1:1), preincubated at 4 C overnight; glutaraldehyde at 10- and 100-fold molar excess, 30 min at 4 C, quenched with Tris; SDS-PAGE and Western blot with anti-S100A9 polyclonal antibodies; conditions: both partners purified
# T1 construct: Apolipoprotein E, isoform ApoE3 (Cys112/Arg158), human; printed as a 299-residue lipoprotein; the methods call the ApoE isoforms full-length; PDB 2L7B (NMR structure of full-length ApoE3) was used for the modelling only; also called Apolipoprotein E3; lipid-free ApoE3; source: bought: AlexoTech AB (recombinant), then size-exclusion chromatography (Superdex 200)
# T1 sequence (P02649 19-317): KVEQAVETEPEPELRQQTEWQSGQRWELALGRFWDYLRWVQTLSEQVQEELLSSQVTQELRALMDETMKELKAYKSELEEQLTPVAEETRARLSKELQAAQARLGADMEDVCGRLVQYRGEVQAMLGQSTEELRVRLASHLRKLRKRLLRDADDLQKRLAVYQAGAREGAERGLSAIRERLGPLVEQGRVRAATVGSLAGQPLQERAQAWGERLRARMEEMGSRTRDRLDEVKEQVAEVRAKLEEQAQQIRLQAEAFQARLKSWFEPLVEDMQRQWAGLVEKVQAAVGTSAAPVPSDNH
# ApoE4 (lipid-free) = target: T2, ApoE4 (lipid-free) (human, UniProt P02649 19-317, Cys112 to Arg112); experiment: as above; conditions: both partners purified
# T2 construct: Apolipoprotein E, isoform ApoE4 (Arg112/Arg158), human; printed as a 299-residue lipoprotein; the methods call the ApoE isoforms full-length; Natural allele APOE e4; differs from ApoE3 only at position 112; also called Apolipoprotein E4; lipid-free ApoE4; source: bought: AlexoTech AB (recombinant), then size-exclusion chromatography (Superdex 200)
# T2 sequence (P02649 other isoform, or with tags, fused parts or gaps Cys112 to Arg112 | Cys112 to Arg112): as the sequence (P02649 19-317) above, with C112R counted along it
# ApoE3 (lipid-free) [2] = target: T1, ApoE3 (lipid-free); experiment: SDS-stable complex by SDS-PAGE and Western blot; 50 uM S100A9 with 2 uM lipid-free or lipidated ApoE isoform, PBS, 42 C, 70 h, non-stirring; reducing Laemmli buffer, 4-20% gel; Coomassie and Western blot with anti-S100A9 polyclonal antibody (Invitrogen); conditions: both partners purified
# [3] = target: T3, ApoE3-DOPC (lipidated ApoE3) (human, UniProt P02649 19-317); experiment: as above; conditions: both partners purified
# T3 construct: Apolipoprotein E, isoform ApoE3 (Cys112/Arg158), human; printed as a 299-residue lipoprotein; 'Lipidated full-length ApoE isoforms'; also called DOPC-ApoE3; source: bought: AlexoTech AB (recombinant)
# T3 sequence (P02649 19-317): as the sequence (P02649 19-317) above
# [4] = target: T4, ApoE4-DOPC (lipidated ApoE4) (human, UniProt P02649 19-317, Cys112 to Arg112); experiment: as above; conditions: both partners purified
# T4 construct: Apolipoprotein E, isoform ApoE4 (Arg112/Arg158), human; printed as a 299-residue lipoprotein; 'Lipidated full-length ApoE isoforms'; source: bought: AlexoTech AB (recombinant)
# T4 sequence (P02649 other isoform, or with tags, fused parts or gaps Cys112 to Arg112 | Cys112 to Arg112): as the sequence (P02649 19-317) above, with C112R counted along it
# [5] = target: the molecule itself; experiment: as above
# [6] = target: the molecule itself; experiment: SDS-stable complex by Western blot of pellet and SEC fractions; 100 uM S100A9 with 5 uM lipid-free ApoE4, PBS, 42 C, 70 h (methods: 72 h); centrifuged 14,000 rpm 15 min; pellet and Superdex 200 peaks of the supernatant on SDS-PAGE and Western blot with anti-S100A9 polyclonal antibodies (Santa Cruz)
binder,measurement,setting,value
B1,stoichiometry N,ApoE3 (lipid-free) [1],2 S100A9 per ApoE
same,stoichiometry N,ApoE4 (lipid-free),1 S100A9 per ApoE and 2 S100A9 per ApoE
same,stoichiometry N,ApoE3 (lipid-free) [2],1 S100A9 per ApoE
same,stoichiometry N,[3],1 S100A9 per ApoE
same,stoichiometry N,[4],1 S100A9 per ApoE
same,stoichiometry N,[5],3
same,stoichiometry N,[6],2
